Measurements: patent publication US20250353910A1 (INVENRA, published 2025)

Assays:
[1] = biological target: T1, Cynomolgus B7H3, His-tagged protein (AcroBiosystems Cat #B73-C52Ha) (cynomolgus); assay: BLI (Octet), bispecific antibody captured on biosensor, soluble antigen; via kinetics
T1 construct: Bought soluble protein; also called Cyno B7H3
Method: (§1) Soluble antigens (e.g., B7H3 or GD2) were then added to the system and binding was measured.

[2] = biological target: T2, Recombinant Rat B7-H3 Fc Chimera Protein (R&D Systems Cat #10610-B3-050) (rat, UniProt Q7TPB4 29-244); assay: as above
T2 construct: Bought Fc chimera; not shown: Fc part of the chimera
T2 sequence (looked up): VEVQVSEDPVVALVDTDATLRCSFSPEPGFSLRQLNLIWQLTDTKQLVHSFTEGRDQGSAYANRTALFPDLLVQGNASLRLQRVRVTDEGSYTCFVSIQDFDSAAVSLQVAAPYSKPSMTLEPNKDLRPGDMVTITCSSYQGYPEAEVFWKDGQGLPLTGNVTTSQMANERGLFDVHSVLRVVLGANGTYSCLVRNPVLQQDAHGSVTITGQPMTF
Method: as §1

[3] = biological target: T1, Cynomolgus B7H3, His-tagged protein …; assay: BLI (Octet), bispecific antibody captured on biosensor, soluble antigen
Method: as §1

[4] = biological target: T2, Recombinant Rat B7-H3 Fc Chimera …; assay: as above
Method: as §1

Kd [1]: 1.16 nM
Kd [2]: 6.88 nM
koff [3]: 0.000239 s⁻¹
kon [3]: 206000 M⁻¹ s⁻¹
koff [4]: 0.00137 s⁻¹
kon [4]: 199000 M⁻¹ s⁻¹
B1: Exemplary Bispecific Antibody 1 (B7H3 x GD2) (bispecific antibody)
chain 1: not shown
chain 2: EVQLVESGGGLVQPGGSLRLSCAASGFTFSTYYIHWVRQAPGKGLEWVAWIHPSGKYTYYADSVKGRFTISADTSKNTAYLQMNSLRAEDTAVYYCARHYQVGAMDYWGQGTLVTVSSAQPREPQVYTLPPCRDWLTKNQVSLTCLVKGFYPSDIAVEWESNGQPENNYKTTPPVLDSDGSFFLYSKLTVDKSRWQQGNVFSCSVMHEALHNHYTQKSLSLSPGK
chain 3: not shown
chain 4: EVQLVESGGGLVQPGGSLRLSCAASGSSFTGYNMNWVRQAPGKGLEWVAAIDPYYGGTYYADSVKGRFTISADTSKNTAYLQMNSLRAEDTAVYYCASGMEYWGQGTLVTVSSASTKGPSVFPLAPSSKSTSGGTAALGCLVKDYFPEPVTVSWNSGALTSGVHTFPAVLQSSGLYSLSSVVTVPSSSLGTQTYICNVNHKPSNTKVDKKVEPKSC
notes: B7H3 arm on chains 1 and 2, GD2 arm on chains 3 and 4; also called Ex. bsAb; 1×1 bispecific antibody
